Results reported in article PMC10933263 (EMBO Reports, 2024).

Tests used:
[1] = target: bovine adenylyl cyclase AC8, purified, tag-free (bovine) (UniProt E1BQ12)
[2] = target: bovine adenylyl cyclase AC8, purified, tag-free (bovine) (UniProt E1BQ12); remark: listed apart in the source
[3] = target: bovine adenylyl cyclase AC8, purified, tag-free (bovine, UniProt E1BQ12 1-1253); assay: cell-based or functional assay

With “Calmodulin (from bovine testes, Sigma-Aldrich P1431) (from UniProt P62157 1-149) (natural protein)” the activation of AC8 adenylyl cyclase activity (cAMP accumulation) by CaM in the absence of CaCl2, EC50 [1] was 86.6 nM and the activation of AC8 adenylyl cyclase activity (cAMP accumulation) by CaM in the presence of CaCl2, EC50 [1] was 4.1 nM.

In the case of “G protein beta gamma subunit (Gβ1γ2) (from UniProt P62871 1-340; P63212 1-71) (complex)”, the inhibition of AC8 adenylyl cyclase activity (cAMP accumulation) by Gβγ, IC50 [2] is reported as 400 nM.

B1: bovine G protein αs subunit, GTPγS-activated (natural protein, UniProt P04896-1 1-394, looked up)
chain: MGCLGNSKTEDQRNEEKAQREANKKIEKQLQKDKQVYRATHRLLLLGAGESGKSTIVKQMRILHVNGFNGEGGEEDPQAARSNSDGEKATKVQDIKNNLKEAIETIVAAMSNLVPPVELANPENQFRVDYILSVMNVPDFDFPPEFYEHAKALWEDEGVRACYERSNEYQLIDCAQYFLDKIDVIKQDDYVPSDQDLLRCRVLTSGIFETKFQVDKVNFHMFDVGGQRDERRKWIQCFNDVTAIIFVVASSSYNMVIREDNQTNRLQEALNLFKSIWNNRWLRTISVILFLNKQDLLAEKVLAGKSKIEDYFPEFARYTTPEDATPEPGEDPRVTRAKYFIRDEFLRISTASGDGRHYCYPHFTCAVDTENIRRVFNDCRDIIQRMHLRQYELL
With B1 the “activation of AC8 adenylyl cyclase activity (cAMP accumulation) by GTPγS-bound Gαs, EC50” value [3] was 25.5 nM.
